The target of series [1] is T1, LHD29 chainB.
T1 construct: also called LHD29B; 29B
T1 chain: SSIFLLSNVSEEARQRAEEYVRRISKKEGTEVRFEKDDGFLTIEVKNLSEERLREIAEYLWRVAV
Kind of series: BLI, global kinetic fit, 1:1 model. As to the method: (§1) Biolayer interferometry experiments were performed on an OctetRED96 BLI system (ForteBio, Menlo Park, CA). Streptavidin coated biosensors were first equilibrated for at least 10 minutes in Octet buffer (10 mM HEPES pH 7.4, 150 mM NaCl, 3 mM EDTA, 0.05% Surfactant P20) supplemented with 1 mg/ml Bovine Serum Albumin (SigmaAldrich). Enzymatically biotinylated designs were immobilized onto the biosensors by dipping the biosensors into a solution with 10-50 nM protein for 30-120 s. This was followed by dipping in fresh octet buffer to establish a baseline for 120 s. Titration experiments were performed at 25° C. while rotating at 1,000 r.p.m. Association of designs was allowed by dipping biosensors in solutions containing designed protein diluted in octet buffer until equilibrium was approached followed by dissociation by dipping the biosensors into fresh buffer solution in order to monitor the dissociation kinetics. Steady-state and global kinetic fits were performed using the manufacturer's software (Data Analysis 9.1) assuming a 1:1 binding model.
A general note: In BLI a coated tip is dipped into the sample, and binding shifts an interference pattern.

Series [2] deals with T1, LHD29 chainB. Kind of series: BLI, steady state fit. As to the method:
as §1

Series [3] concerns the molecule itself. Kind of series: BLI conditions (self-association).
Series [4] deals with the molecule itself. Kind of series: SEC titration of the C4 hub alone (normalised A230, concentrations per monomer) and negative-stain EM; self-association of hubs.

B1: LHD29 chainA (designed binder)
chain: TWQWVLINISEEARQRIEEYVRRISKKEGTEVHFEKDDGVLHIRVKNLHEKRAREIHEYAKRVIL
notes: also called LHD29A; 29A
On to B1, for which, in the series with LHD29 chainB [1], the Kd (as a rule, the free concentration of one partner at which half of the binding sites on the other are occupied at equilibrium, for simple one-to-one binding) amounted to 985 nM; the koff (in general, the first-order rate constant of dissociation) came out at 0.00068 s⁻¹; the on-rate constant (kon) (as a rule, the second-order rate constant of association) was 690 M⁻¹ s⁻¹. In addition, binding with LHD29 chainB [2] was characterised by a dissociation constant (Kd) of 310 nM. In addition, the binding result in series [3] was “binds”.

B2: C4-Hub (designed binder)
chain: GNTHFIVVHGSEDAAQLAEELVREISKKEGTEVRFEKKDGLLSIEVKNLSEERQREIQKALQLVQDVANAERVVRERPGSNLAKKALEIILRAAEELAKLDLKASLKAAVRAAEKVVREQPGSELAKKALEIILRAAEELAKLPDPEALHEAVRAAEHVVRSQPGSEAAKEALRIIQEAAELLKESPDPTAIIRAARALLKIARTTGDEEAAKEAIEAAKKAADLARERGDDELVCEALALLVAAQVELLKQQGTSAVEIAKIVARVISEVIRTLKEKGSSYEVICECVARIVAEIVEALKRSGTSAAIIALIVALVISEVIRTLKESGSSFEVILECVIRIVLEIIEALKRSGTSEQDVMLIVMAVLLVVLATLQLSGSGSLEHHHHHH
notes: C4-symmetric homo-oligomeric hub carrying LHD274B; also called C4 53; C4-symmetric hub
As to B2, in series [4], the binding result was “binds”.

The record behind these values is US20240368233A1 (University of Washington, published 2024).
